Key:
HLA-C*07:02 = assay: IEDB peptide-MHC binding, purified MHC/direct/fluorescence; filed as Kd, often an IC50 or EC50 that approximates it; ≥ and ≤ were set here for values at or beyond the usual limits of such assays; details: source organism: Mus musculus
HLA-B*73:01 [1] = assay: IEDB peptide-MHC binding, purified MHC/competitive/fluorescence; filed as Kd, often an IC50 or EC50 that approximates it; ≥ and ≤ were set here for values at or beyond the usual limits of such assays; details: source organism: Mus musculus
HLA-B*45:06 = assay: as above; details: source organism: Mus musculus
HLA-C*06:02 [2] = assay: as above; details: source organism: Mus musculus
HLA-B*15:42 = assay: as above; details: source organism: Mus musculus
HLA-B*27:20 = assay: as above; details: source organism: Mus musculus
HLA-B*27:05 [3] = assay: as above; details: source organism: Mycobacterium tuberculosis variant bovis BCG str. Pasteur 1173P2
HLA-B*15:01 [4] = assay: IEDB peptide-MHC binding, purified MHC/direct/fluorescence; filed as Kd, often an IC50 or EC50 that approximates it; ≥ and ≤ were set here for values at or beyond the usual limits of such assays
HLA-B*73:01 [5] = assay: as above
HLA-B*07:02 [6] = assay: as above
HLA-A*03:01 [7] = assay: as above
HLA-A*01:01 = assay: as above
HLA-A*02:01 [8] = assay: as above; details: source organism: Brucella abortus 2308
HLA-B*08:01 [9] = assay: as above
HLA-B*58:01 = assay: as above
HLA-A*26:01 = assay: as above
HLA-B*27:05 [10] = assay: as above
HLA-A*31:01 [11] = assay: as above
HLA-A*69:01 = assay: as above
HLA-B*40:01 = assay: as above
HLA-A*11:01 = assay: as above
HLA-B*44:02 = assay: as above; details: source organism: Brucella abortus 2308
HLA-C*06:02 [12] = assay: as above; details: source organism: Escherichia coli
HLA-B*15:01 [13] = assay: IEDB peptide-MHC binding, purified MHC/competitive/fluorescence; filed as Kd, often an IC50 or EC50 that approximates it; ≥ and ≤ were set here for values at or beyond the usual limits of such assays
HLA-A*03:01 [14] = assay: as above; details: source organism: Escherichia coli
HLA-A*31:01 [15] = assay: as above; details: source organism: Escherichia coli
HLA-C*04:01 = assay: IEDB peptide-MHC binding, purified MHC/direct/fluorescence; filed as Kd, often an IC50 or EC50 that approximates it; ≥ and ≤ were set here for values at or beyond the usual limits of such assays; details: source organism: Leishmania major strain Friedlin
HLA-B*18:01 = assay: as above
HLA-B*57:01 = assay: as above
HLA-B*38:01 = assay: as above; details: source organism: Variola virus
HLA-B*48:01 [16] = assay: as above
HLA-B*51:01 = assay: as above; details: source organism: Camelpox virus CMS
HLA-B*15:17 [17] = assay: as above; details: source organism: Camelpox virus CMS
HLA-A*02:01 [18] = assay: IEDB peptide-MHC binding, purified MHC/competitive/fluorescence; filed as Kd, often an IC50 or EC50 that approximates it; ≥ and ≤ were set here for values at or beyond the usual limits of such assays
HLA-B*15:09 = assay: as above; details: source organism: Ectromelia virus
HLA-B*08:01 [19] = assay: as above; details: source organism: Ectromelia virus
HLA-B*46:01 = assay: IEDB peptide-MHC binding, purified MHC/direct/fluorescence; filed as Kd, often an IC50 or EC50 that approximates it; ≥ and ≤ were set here for values at or beyond the usual limits of such assays; details: source organism: Marburg virus - Musoke, Kenya, 1980
HLA-A*26:03 = assay: as above; details: source organism: Ravn virus - Ravn, Kenya, 1987
HLA-B*39:01 = assay: as above; details: source organism: Marburg virus - Musoke, Kenya, 1980
HLA-B*08:02 = assay: as above; details: source organism: Ravn virus - Ravn, Kenya, 1987
HLA-B*07:02 [20] = assay: IEDB peptide-MHC binding, purified MHC/competitive/fluorescence; filed as Kd, often an IC50 or EC50 that approximates it; ≥ and ≤ were set here for values at or beyond the usual limits of such assays; details: source organism: Orthomarburgvirus marburgense
HLA-A*68:02 = assay: as above; details: source organism: Orthomarburgvirus marburgense
HLA-A*30:01 = assay: as above; details: source organism: Orthomarburgvirus marburgense
HLA-B*48:01 [21] = assay: as above; details: source organism: Orthomarburgvirus marburgense
HLA-B*15:17 [22] = assay: as above; details: source organism: Orthomarburgvirus marburgense
[23] = source organism: Brucella abortus 2308
[24] = source organism: Brucella melitensis
[25] = source organism: Camelpox virus CMS
[26] = source organism: Ectromelia virus
[27] = source organism: Toxoplasma gondii
[28] = source organism: Marburg virus - Musoke, Kenya, 1980

FRMLAWHVL gave a Kd (HLA-C*07:02) of 0.03 µM, a Kd (HLA-B*73:01 [1]) of 0.689 µM and a Kd (HLA-B*45:06) of no less than 5 µM. The Kd (HLA-C*06:02 [2]) was 0.0038 µM, the Kd (HLA-B*15:42) was no less than 5 µM and the Kd (HLA-B*27:20) was 0.0002 µM.
Work on GRAVSSATF yielded a Kd (HLA-B*27:05 [3]) of 0.141 µM.
In the case of KRASGDPYF, the Kd (HLA-B*15:01 [4]; [23]) is reported as no less than 20 µM, the Kd (HLA-B*73:01 [5]; source organism: Brucella suis ATCC 23445) is reported as no less than 20 µM and the Kd (HLA-B*07:02 [6]; [23]) is reported as no less than 20 µM. For the same sequence, the Kd (HLA-A*03:01 [7]; [23]) was no less than 20 µM, the Kd (HLA-A*01:01; [23]) was no less than 20 µM and the Kd (HLA-A*02:01 [8]) was no less than 20 µM. It also gave a Kd (HLA-B*08:01 [9]; [23]) of no less than 20 µM, a Kd (HLA-B*58:01; [24]) of 5.93 µM and a Kd (HLA-A*26:01; [23]) of no less than 20 µM. For the same sequence, the Kd (HLA-B*27:05 [10]; [24]) was 2.79 µM, the Kd (HLA-A*31:01 [11]; [23]) was no less than 20 µM and the Kd (HLA-A*69:01; [23]) was no less than 20 µM. The Kd (HLA-B*40:01; [23]) was no less than 20 µM, the Kd (HLA-A*11:01; [23]) was no less than 20 µM and the Kd (HLA-B*44:02) was no less than 20 µM.
In the case of RYWRLRYRI, the Kd (HLA-C*06:02 [12]) is reported as no less than 20 µM, the Kd (HLA-B*15:01 [13]; source organism: Escherichia coli) is reported as no less than 20 µM and the Kd (HLA-A*03:01 [14]) is reported as no less than 20 µM. For the same sequence, the Kd (HLA-A*31:01 [15]) was 0.0021 µM.
With TRDPNLAYI the Kd (HLA-C*04:01) was no less than 20 µM.
VIARTHTAL was tested, and the Kd (HLA-B*18:01; [25]) was no less than 20 µM, the Kd (HLA-B*07:02 [6]; [25]) was 0.0583 µM and the Kd (HLA-B*57:01; [25]) was no less than 20 µM. For the same sequence, the Kd (HLA-A*03:01 [7]; [25]) was no less than 20 µM, the Kd (HLA-A*01:01; [25]) was no less than 20 µM and the Kd (HLA-B*38:01) was no less than 20 µM. It also gave a Kd (HLA-B*58:01; [25]) of no less than 20 µM, a Kd (HLA-B*48:01 [16]; [25]) of no less than 20 µM and a Kd (HLA-A*26:01; source organism: Variola virus) of no less than 20 µM. For the same sequence, the Kd (HLA-B*27:05 [10]; [25]) was no less than 20 µM, the Kd (HLA-A*31:01 [11]; [25]) was no less than 20 µM and the Kd (HLA-A*69:01; [25]) was no less than 20 µM. It also gave a Kd (HLA-B*40:01; [25]) of no less than 20 µM, a Kd (HLA-A*11:01; [25]) of no less than 20 µM and a Kd (HLA-B*51:01) of no less than 20 µM. For the same sequence, the Kd (HLA-B*15:17 [17]) was no less than 20 µM, the Kd (HLA-B*15:01 [13]; [26]) was 0.785 µM and the Kd (HLA-A*02:01 [18]; [26]) was no less than 20 µM. The Kd (HLA-B*15:09) was no less than 20 µM and the Kd (HLA-B*08:01 [19]) was 0.0518 µM.
In the case of WRMVVRASF, the Kd (HLA-B*73:01 [5]; [27]) is reported as 1.34 µM, the Kd (HLA-B*48:01 [16]; [27]) is reported as no less than 20 µM and the Kd (HLA-B*27:05 [10]; [27]) is reported as 0.008 µM.
With YHLGGIEGL the Kd (HLA-B*15:01 [4]; [28]) was no less than 20 µM, the Kd (HLA-B*18:01; [28]) was no less than 20 µM and the Kd (HLA-B*46:01) was no less than 20 µM. The Kd (HLA-B*57:01; [28]) was no less than 20 µM, the Kd (HLA-A*01:01; [28]) was no less than 20 µM and the Kd (HLA-B*08:01 [9]; source organism: Ravn virus - Ravn, Kenya, 1987) was no less than 20 µM. It also gave a Kd (HLA-A*26:03) of no less than 20 µM, a Kd (HLA-B*39:01) of 0.0403 µM and a Kd (HLA-B*08:02) of no less than 20 µM. It also gave a Kd (HLA-B*58:01; [28]) of no less than 20 µM, a Kd (HLA-B*27:05 [10]; [28]) of no less than 20 µM and a Kd (HLA-A*69:01; [28]) of 2.41 µM. It also gave a Kd (HLA-B*40:01; [28]) of no less than 20 µM, a Kd (HLA-B*07:02 [20]) of no less than 20 µM and a Kd (HLA-A*68:02) of 1.44 µM. For the same sequence, the Kd (HLA-A*02:01 [18]; source organism: Orthomarburgvirus marburgense) was 0.007 µM, the Kd (HLA-A*30:01) was no less than 20 µM and the Kd (HLA-B*48:01 [21]) was 0.155 µM. The Kd (HLA-B*15:17 [22]) was no less than 20 µM.

— the Immune Epitope Database (IEDB)
